Measurements: patent US6900050 (ROCKEFELLER UNIVERSITY, dated 2005)

T1: LexA DNA binding domain-TRAF2 fusion protein (UniProt P0A7C2 1-202; P39429 1-501)
T1 construct: also called LexA-TRAF2
T1 sequence (looked up): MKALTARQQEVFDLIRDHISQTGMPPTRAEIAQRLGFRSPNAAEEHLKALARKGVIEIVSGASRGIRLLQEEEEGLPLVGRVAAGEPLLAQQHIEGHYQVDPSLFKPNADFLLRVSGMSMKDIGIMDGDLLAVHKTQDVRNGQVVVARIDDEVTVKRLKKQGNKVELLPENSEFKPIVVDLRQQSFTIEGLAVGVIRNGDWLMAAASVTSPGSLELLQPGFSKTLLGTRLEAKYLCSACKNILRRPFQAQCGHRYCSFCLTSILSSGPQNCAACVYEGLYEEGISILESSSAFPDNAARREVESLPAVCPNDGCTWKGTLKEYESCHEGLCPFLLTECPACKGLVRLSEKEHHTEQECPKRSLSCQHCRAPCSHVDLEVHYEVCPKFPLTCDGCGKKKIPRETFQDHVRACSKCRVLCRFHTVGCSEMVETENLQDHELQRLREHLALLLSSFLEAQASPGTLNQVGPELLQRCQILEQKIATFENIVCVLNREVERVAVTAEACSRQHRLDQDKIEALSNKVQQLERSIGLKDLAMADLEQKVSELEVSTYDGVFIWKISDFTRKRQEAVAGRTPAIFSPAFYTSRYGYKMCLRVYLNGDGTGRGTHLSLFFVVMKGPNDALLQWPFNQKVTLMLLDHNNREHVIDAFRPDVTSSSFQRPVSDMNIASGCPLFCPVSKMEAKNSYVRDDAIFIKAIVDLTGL

T2: LexA DNA binding domain-TRAF1 fusion protein (bait plasmid pEG202-TRAF1) (UniProt P0A7C2 1-202; P39428 1-409)
T2 construct: also called LexA-TRAF1
T2 sequence (looked up): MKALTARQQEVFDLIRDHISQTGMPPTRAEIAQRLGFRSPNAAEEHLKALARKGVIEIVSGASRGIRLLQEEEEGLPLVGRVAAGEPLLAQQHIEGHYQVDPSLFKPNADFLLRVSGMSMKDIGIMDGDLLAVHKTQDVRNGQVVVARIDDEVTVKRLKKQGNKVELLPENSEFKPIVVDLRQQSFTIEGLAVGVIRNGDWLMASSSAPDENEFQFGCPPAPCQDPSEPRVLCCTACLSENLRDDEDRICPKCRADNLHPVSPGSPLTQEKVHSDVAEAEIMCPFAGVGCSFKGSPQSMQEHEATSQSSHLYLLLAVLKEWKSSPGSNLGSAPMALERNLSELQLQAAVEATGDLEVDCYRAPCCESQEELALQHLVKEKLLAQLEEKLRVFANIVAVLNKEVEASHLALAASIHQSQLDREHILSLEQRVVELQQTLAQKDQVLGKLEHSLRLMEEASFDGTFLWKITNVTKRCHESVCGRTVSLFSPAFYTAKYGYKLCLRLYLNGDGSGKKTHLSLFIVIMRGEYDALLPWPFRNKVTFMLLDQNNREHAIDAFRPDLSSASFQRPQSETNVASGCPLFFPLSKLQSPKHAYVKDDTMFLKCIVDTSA

B1: HA epitope tagged-TRIP expressed in 293 cells (other, not shown: small tags and cut ends)
chain: MPILSLCTICSDFFDHSRDVAAIHCGHTFHLQCLIQWFETAPSRTCPQCRIQVGKKTIINKLFFDLAQEEENVLDAEFLKNELDSVKAQLSQKDREKRDSQAIIDTLRDTLEERNATVESLQNALNKAEMLCSTLKKQMKFLEQRQDETKQAREEAHRLKCKMKTMEQIELLLQSQRSEVEEMIRDMGVGQSAVEQLAVYCVSLKKEYENLKEARKATGELADRLKKDLVSSRSKLKTLNTELDQAKLELRSAQKDLQSADQEITSLRKKSDDPPGNLEPASATNETVSRLVFESPAPVEMMNPRLHQPPFGDEIDLNTTFDVNTPPTQTSGSQHCLPKKLCLERARSPMQNVLKKVHKVSKPESQLSLGGQRCVGELDEELAGAFPLFIRNAVLGQKQPNRTTAESRSSTDVVRIGFDGLGGRTKFIQPRDTTIIRPVPVKSKAKSKQKVRIKTVSSASQPKLDTFLCQ
notes: also called HA-TRIP
B2: mutant TRIP lacking the N-terminal RING finger and the coiled-coil domain (residues 275-470) fused to the transcription activation domain (other, not shown: large carriers)
chain: PGNLEPASATNETVSRLVFESPAPVEMMNPRLHQPPFGDEIDLNTTFDVNTPPTQTSGSQHCLPKKLCLERARSPMQNVLKKVHKVSKPESQLSLGGQRCVGELDEELAGAFPLFIRNAVLGQKQPNRTTAESRSSTDVVRIGFDGLGGRTKFIQPRDTTIIRPVPVKSKAKSKQKVRIKTVSSASQPKLDTFLCQ

Columns and labels:
[1] = target: T3, GST alone (control) (UniProt P08515 1-218 = GST); experiment: glutathione-Sepharose coprecipitation from 293 cells, Western blot (control)
T3 construct: Control for the glutathione-Sepharose coprecipitations; also called GST proteins
Procedure: Cell lysates were precipitated with glutathione-Sepharose beads, and analyzed by Western blot analysis with anti-TRAF1 or anti-TRAF2 antibodies. The 293 cells were transfected with various combinations of expression vectors and thirty-six hours after transfection, cells were harvested in phosphate-buffered saline/1 mM phenylmethylsulfonyl fluoride, pelleted, and lysed in lysis buffer (20 mM Hepes (pH 7.9), 100 mM KCl, 300 mM NaCl, 10 mM EDTA, 0.1% NP-40, plus protease inhibitors). After lysis, aliquots of cell lysates were incubated with glutathione-Sepharose (Pharmacia) for 2 hr at 4° C. […]
However, since the interaction of TRAFs with the cognate members of the TNFR superfamily is mediated through the TRAF-C domain rather than the entire TRAF domain, it was-important to determine whether TRIP can indirectly interact with the receptors through TRAFs. […] Cell lysates were precipitated with glutathione-Sepharose beads, and analyzed on Western blots with anti-HA, anti-TRAF1, and anti-TRAF2 antibodies. […]
Aliquots of cell lysates were subjected for purification with glutathione-Sepharose beads as described in Experimental Procedures. Proteins coprecipitated with GST-fusion proteins were analyzed by Western analysis with an anti-HA mAb (12CA5), and anti-TRAF1- or anti-TRAF2-polyclonal antibodies.

[2] = target: T1, LexA DNA binding domain-TRAF2 fusion …; experiment: yeast two-hybrid, b-gal activity
Text: (§1) The yeast two-hybrid assay was used to determine the structural requirements for the interaction of TRIP with TRAF1 or TRAF2. […] Expression vectors encoding wild type TRIP or the indicated deletion mutants of TRIP fused to the transcription activation domain were cotransformed into yeast with plasmids expressing LexA DNA binding domain-TRAF1 or -TRAF2 fusion proteins. Inter-actions between fusion proteins were scored by measuring b-gal activity of yeast transformants. The "+" indicates average b-gal activity of three independent yeast transformants was higher than 1000 Miller units; and the "−" indicates average b-gal activity of three independent yeast transformants was about 100 Miller units, which was similar to that of negative controls (bait plasmid alone).

[3] = target: T2, LexA DNA binding domain-TRAF1 fusion …; experiment: yeast two-hybrid, b-gal activity
Text: as §1

T3 sequence (P08515 whole entry): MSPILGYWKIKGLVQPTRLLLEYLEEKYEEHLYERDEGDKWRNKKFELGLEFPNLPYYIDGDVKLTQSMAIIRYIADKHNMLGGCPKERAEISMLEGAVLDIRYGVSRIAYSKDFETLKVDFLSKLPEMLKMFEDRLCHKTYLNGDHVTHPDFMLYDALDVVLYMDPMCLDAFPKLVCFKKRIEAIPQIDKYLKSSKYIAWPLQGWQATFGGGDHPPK

Binder | binding result [1] | binding result [2] | binding result [3]
B1 | no binding | – | –
B2 | – | no binding | no binding
